Data reported in paper PMC9482650, “Quantitative fragmentomics allow affinity mapping of interactomes” (Nature Communications, 2022).

T1: MPP6, Q9NZW5
T1 sequence (Q9NZW5 125-219, limits assumed, looked up): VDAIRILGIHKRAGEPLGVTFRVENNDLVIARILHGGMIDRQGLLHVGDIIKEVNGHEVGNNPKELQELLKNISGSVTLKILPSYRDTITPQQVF

T2: APBA3_1, O96018
T2 sequence (O96018 389-490, limits assumed, looked up): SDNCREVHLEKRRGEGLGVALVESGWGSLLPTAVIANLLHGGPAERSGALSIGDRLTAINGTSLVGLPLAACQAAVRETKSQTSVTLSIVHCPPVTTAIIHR

T3: DLG3_3, Q92796
T3 sequence (Q92796 374-475, limits assumed, looked up): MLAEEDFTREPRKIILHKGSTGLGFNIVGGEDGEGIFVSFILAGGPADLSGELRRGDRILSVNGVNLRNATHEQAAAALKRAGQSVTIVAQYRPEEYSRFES

T4: PARD3B_1, Q8TEW8
T4 sequence (Q8TEW8 196-299, limits assumed, looked up): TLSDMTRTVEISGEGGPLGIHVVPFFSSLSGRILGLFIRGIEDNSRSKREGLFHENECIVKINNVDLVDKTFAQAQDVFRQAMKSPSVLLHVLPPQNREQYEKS

T5: APBA2_1, Q99767
T5 sequence (Q99767 563-664, limits assumed, looked up): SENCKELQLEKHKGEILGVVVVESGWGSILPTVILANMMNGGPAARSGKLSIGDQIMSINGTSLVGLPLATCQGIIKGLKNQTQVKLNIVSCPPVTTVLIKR

T6: SNTA1, Q13424
T6 sequence (Q13424 82-180, limits assumed, looked up): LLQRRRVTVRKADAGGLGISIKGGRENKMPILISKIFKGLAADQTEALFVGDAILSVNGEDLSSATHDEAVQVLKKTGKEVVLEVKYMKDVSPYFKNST

T7: SNTG1, Q9NSN8
T7 sequence (Q9NSN8 52-150, limits assumed, looked up): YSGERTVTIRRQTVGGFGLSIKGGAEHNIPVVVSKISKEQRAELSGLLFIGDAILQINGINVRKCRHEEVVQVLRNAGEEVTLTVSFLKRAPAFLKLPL

T8: HTRA3, P83110
T8 sequence (P83110 354-453, limits assumed, looked up): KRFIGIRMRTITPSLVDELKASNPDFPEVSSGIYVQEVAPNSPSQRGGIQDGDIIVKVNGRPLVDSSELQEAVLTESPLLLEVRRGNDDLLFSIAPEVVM

T9: DLG3_2, Q92796
T9 sequence (Q92796 221-321, limits assumed, looked up): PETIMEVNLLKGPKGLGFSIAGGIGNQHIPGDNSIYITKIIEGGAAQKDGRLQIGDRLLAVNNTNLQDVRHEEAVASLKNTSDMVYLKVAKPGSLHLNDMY

T10: DFNB31_3, Q9P202
T10 sequence (Q9P202 811-907, limits assumed, looked up): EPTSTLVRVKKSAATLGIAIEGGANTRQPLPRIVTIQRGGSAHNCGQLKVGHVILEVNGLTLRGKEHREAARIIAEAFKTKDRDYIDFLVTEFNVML

T11: DFNB31_2, Q9P202
T11 sequence (Q9P202 274-371, limits assumed, looked up): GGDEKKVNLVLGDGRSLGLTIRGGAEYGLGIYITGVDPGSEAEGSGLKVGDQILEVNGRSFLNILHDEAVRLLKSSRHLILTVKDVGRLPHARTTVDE

B1: NCF1, P14598 (peptide)
chain: STKRKLASAV
B2: FZD2, Q14332 (peptide)
chain: TNSRHGETTV
B3: FAM110B, Q8TC76 (peptide)
chain: ARESQKVSHV
B4: SCN5A, Q14524 (peptide)
chain: SPDRDRESIV

target: T1, MPP6, Q9NZW5; assay: holdup assay; design: key: below the threshold = too weak to quantify, mostly under pKd 3.1 to 4; conditions: plain residues with an end cap or a label only (N-terminal biotin on a linker: ado-ado)

Row | Binder | pKd
1 | B1 | below the threshold
2 | B2 | below the threshold
3 | B3 | below the threshold
4 | B4 | below the threshold

target: T2, APBA3_1, O96018; assay: holdup assay; design: key: below the threshold = too weak to quantify, mostly under pKd 3.1 to 4; conditions: plain residues with an end cap or a label only (N-terminal biotin on a linker: ado-ado)

Row | Binder | pKd
5 | B1 | below the threshold
6 | B2 | below the threshold
7 | B3 | below the threshold
8 | B4 | below the threshold

target: Inadl_6, Q8NI35; assay: holdup assay; design: key: below the threshold = too weak to quantify, mostly under pKd 3.1 to 4; conditions: plain residues with an end cap or a label only (N-terminal biotin on a linker: ado-ado)
Sequence (Q8NI35 1058-1167): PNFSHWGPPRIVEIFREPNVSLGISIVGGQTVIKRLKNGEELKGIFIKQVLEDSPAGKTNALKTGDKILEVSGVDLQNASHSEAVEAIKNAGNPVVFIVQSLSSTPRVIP

Row | Binder | pKd
9 | B1 | below the threshold
10 | B2 | below the threshold
11 | B3 | 4.05
12 | B4 | below the threshold

target: GRIP2_5, Q9C0E4; assay: holdup assay; design: key: below the threshold = too weak to quantify, mostly under pKd 3.1 to 4; conditions: plain residues with an end cap or a label only (N-terminal biotin on a linker: ado-ado)
Sequence (Q9C0E4 544-642): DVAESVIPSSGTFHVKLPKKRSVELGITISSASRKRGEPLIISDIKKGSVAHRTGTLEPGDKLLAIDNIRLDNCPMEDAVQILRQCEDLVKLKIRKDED

Row | Binder | pKd
13 | B1 | below the threshold
14 | B2 | below the threshold
15 | B3 | below the threshold
16 | B4 | below the threshold

target: LNX1_2, Q8TBB1; assay: holdup assay; design: key: below the threshold = too weak to quantify, mostly under pKd 3.1 to 4; conditions: plain residues with an end cap or a label only (N-terminal biotin on a linker: ado-ado)
Sequence (Q8TBB1 371-470): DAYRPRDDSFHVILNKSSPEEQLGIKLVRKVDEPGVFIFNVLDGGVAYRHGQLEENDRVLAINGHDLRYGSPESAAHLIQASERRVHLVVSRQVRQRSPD

Row | Binder | pKd
17 | B1 | below the threshold
18 | B2 | 3.78
19 | B3 | below the threshold
20 | B4 | below the threshold

target: T3, DLG3_3, Q92796; assay: holdup assay; design: key: below the threshold = too weak to quantify, mostly under pKd 3.1 to 4; conditions: plain residues with an end cap or a label only (N-terminal biotin on a linker: ado-ado)

Row | Binder | pKd
21 | B1 | below the threshold
22 | B2 | 4.24
23 | B3 | below the threshold
24 | B4 | below the threshold

target: SCRIB_1, Q14160; assay: holdup assay; design: key: below the threshold = too weak to quantify, mostly under pKd 3.1 to 4; conditions: plain residues with an end cap or a label only (N-terminal biotin on a linker: ado-ado)
Sequence (Q14160 718-814): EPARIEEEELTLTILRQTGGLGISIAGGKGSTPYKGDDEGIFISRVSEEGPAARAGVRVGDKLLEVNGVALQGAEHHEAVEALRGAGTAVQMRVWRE

Row | Binder | pKd
25 | B1 | below the threshold
26 | B2 | 4.25
27 | B3 | 3.74
28 | B4 | 3.57

target: T4, PARD3B_1, Q8TEW8; assay: holdup assay; design: key: below the threshold = too weak to quantify, mostly under pKd 3.1 to 4; conditions: plain residues with an end cap or a label only (N-terminal biotin on a linker: ado-ado)

Row | Binder | pKd
29 | B1 | below the threshold
30 | B2 | below the threshold
31 | B3 | below the threshold
32 | B4 | below the threshold

target: T5, APBA2_1, Q99767; assay: holdup assay; design: key: below the threshold = too weak to quantify, mostly under pKd 3.1 to 4; conditions: plain residues with an end cap or a label only (N-terminal biotin on a linker: ado-ado)

Row | Binder | pKd
33 | B1 | below the threshold
34 | B2 | below the threshold
35 | B3 | below the threshold
36 | B4 | below the threshold

target: Inadl_2, Q8NI35; assay: holdup assay; design: key: below the threshold = too weak to quantify, mostly under pKd 3.1 to 4; conditions: plain residues with an end cap or a label only (N-terminal biotin on a linker: ado-ado)
Sequence (Q8NI35 238-335): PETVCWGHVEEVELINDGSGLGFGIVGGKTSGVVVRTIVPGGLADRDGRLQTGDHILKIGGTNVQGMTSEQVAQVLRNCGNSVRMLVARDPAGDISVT

Row | Binder | pKd
37 | B1 | below the threshold
38 | B2 | below the threshold
39 | B3 | below the threshold
40 | B4 | below the threshold

target: Inadl_9, Q8NI35; assay: holdup assay; design: key: below the threshold = too weak to quantify, mostly under pKd 3.1 to 4; conditions: plain residues with an end cap or a label only (N-terminal biotin on a linker: ado-ado)
Sequence (Q8NI35 1530-1615): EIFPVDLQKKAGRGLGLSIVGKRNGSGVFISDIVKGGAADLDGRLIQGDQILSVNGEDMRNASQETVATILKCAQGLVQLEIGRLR

Row | Binder | pKd
41 | B1 | below the threshold
42 | B2 | 3.74
43 | B3 | 3.9
44 | B4 | 3.54

target: T6, SNTA1, Q13424; assay: holdup assay; design: key: below the threshold = too weak to quantify, mostly under pKd 3.1 to 4; conditions: plain residues with an end cap or a label only (N-terminal biotin on a linker: ado-ado)

Row | Binder | pKd
45 | B1 | below the threshold
46 | B2 | 4.64
47 | B3 | 4.25
48 | B4 | 6.16

target: T7, SNTG1, Q9NSN8; assay: holdup assay; design: key: below the threshold = too weak to quantify, mostly under pKd 3.1 to 4; conditions: plain residues with an end cap or a label only (N-terminal biotin on a linker: ado-ado)

Row | Binder | pKd
49 | B1 | below the threshold
50 | B2 | 4.27
51 | B3 | 4.34
52 | B4 | 4.72

target: T8, HTRA3, P83110; assay: holdup assay; design: key: below the threshold = too weak to quantify, mostly under pKd 3.1 to 4; conditions: plain residues with an end cap or a label only (N-terminal biotin on a linker: ado-ado)

Row | Binder | pKd
53 | B1 | below the threshold
54 | B2 | below the threshold
55 | B3 | below the threshold
56 | B4 | below the threshold

target: LAP2, Q96RT1; assay: holdup assay; design: key: below the threshold = too weak to quantify, mostly under pKd 3.1 to 4; conditions: plain residues with an end cap or a label only (N-terminal biotin on a linker: ado-ado)
Sequence (Q96RT1 other isoform, or with tags, fused parts or gaps): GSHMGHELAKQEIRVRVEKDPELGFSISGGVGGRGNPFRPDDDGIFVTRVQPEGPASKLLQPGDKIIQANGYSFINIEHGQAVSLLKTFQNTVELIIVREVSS

Row | Binder | pKd
57 | B1 | below the threshold
58 | B2 | 4.02
59 | B3 | 3.66
60 | B4 | below the threshold

target: T9, DLG3_2, Q92796; assay: holdup assay; design: key: below the threshold = too weak to quantify, mostly under pKd 3.1 to 4; conditions: plain residues with an end cap or a label only (N-terminal biotin on a linker: ado-ado)

Row | Binder | pKd
61 | B1 | 4.45
62 | B2 | 4.72
63 | B3 | 4.22
64 | B4 | 4.57

target: IL16_1, Q14005; assay: holdup assay; design: key: below the threshold = too weak to quantify, mostly under pKd 3.1 to 4; conditions: plain residues with an end cap or a label only (N-terminal biotin on a linker: ado-ado)
Sequence (Q14005 210-306): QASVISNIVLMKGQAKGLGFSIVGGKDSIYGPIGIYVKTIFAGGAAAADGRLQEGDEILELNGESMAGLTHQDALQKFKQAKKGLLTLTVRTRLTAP

Row | Binder | pKd
65 | B1 | 3.52
66 | B2 | 3.76
67 | B3 | 4.17
68 | B4 | 5.08

target: NHERF2_2, Q15599; assay: holdup assay; design: key: below the threshold = too weak to quantify, mostly under pKd 3.1 to 4; conditions: plain residues with an end cap or a label only (N-terminal biotin on a linker: ado-ado)
Sequence (Q15599 142-238): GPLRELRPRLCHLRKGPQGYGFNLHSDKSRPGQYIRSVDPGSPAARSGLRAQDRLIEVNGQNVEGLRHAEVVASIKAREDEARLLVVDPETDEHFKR

Row | Binder | pKd
69 | B1 | below the threshold
70 | B2 | below the threshold
71 | B3 | below the threshold
72 | B4 | below the threshold

target: T10, DFNB31_3, Q9P202; assay: holdup assay; design: key: below the threshold = too weak to quantify, mostly under pKd 3.1 to 4; conditions: plain residues with an end cap or a label only (N-terminal biotin on a linker: ado-ado)

Row | Binder | pKd
73 | B1 | 3.85
74 | B2 | below the threshold
75 | B3 | below the threshold
76 | B4 | 4.06

target: HTRA1, Q92743; assay: holdup assay; design: key: below the threshold = too weak to quantify, mostly under pKd 3.1 to 4; conditions: plain residues with an end cap or a label only (N-terminal biotin on a linker: ado-ado)
Sequence (Q92743 360-477): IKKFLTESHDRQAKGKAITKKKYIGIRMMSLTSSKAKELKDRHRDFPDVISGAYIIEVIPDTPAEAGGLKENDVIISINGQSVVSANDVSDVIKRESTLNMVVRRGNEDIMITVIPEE

Row | Binder | pKd
77 | B1 | below the threshold
78 | B2 | 4.41
79 | B3 | 4.32
80 | B4 | 4.51

target: DLG4_3, P78352; assay: holdup assay; design: key: below the threshold = too weak to quantify, mostly under pKd 3.1 to 4; conditions: plain residues with an end cap or a label only (N-terminal biotin on a linker: ado-ado)
Sequence (P78352 306-403): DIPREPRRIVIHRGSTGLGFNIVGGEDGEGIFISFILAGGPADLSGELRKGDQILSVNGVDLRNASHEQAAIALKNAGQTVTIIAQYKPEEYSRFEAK

Row | Binder | pKd
81 | B1 | 3.67
82 | B2 | 4.24
83 | B3 | below the threshold
84 | B4 | below the threshold

target: MAGI2_4, Q86UL8; assay: holdup assay; design: key: below the threshold = too weak to quantify, mostly under pKd 3.1 to 4; conditions: plain residues with an end cap or a label only (N-terminal biotin on a linker: ado-ado)
Sequence (Q86UL8 772-865): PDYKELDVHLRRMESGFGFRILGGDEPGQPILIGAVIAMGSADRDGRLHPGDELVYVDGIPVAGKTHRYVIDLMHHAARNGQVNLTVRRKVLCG

Row | Binder | pKd
85 | B1 | below the threshold
86 | B2 | 4.1
87 | B3 | below the threshold
88 | B4 | 3.63

target: IL16_4, Q14005; assay: holdup assay; design: key: below the threshold = too weak to quantify, mostly under pKd 3.1 to 4; conditions: plain residues with an end cap or a label only (N-terminal biotin on a linker: ado-ado)
Sequence (Q14005 1229-1329): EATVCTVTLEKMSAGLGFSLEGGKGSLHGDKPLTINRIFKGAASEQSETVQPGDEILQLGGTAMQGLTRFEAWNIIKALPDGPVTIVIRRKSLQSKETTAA

Row | Binder | pKd
89 | B1 | below the threshold
90 | B2 | below the threshold
91 | B3 | below the threshold
92 | B4 | below the threshold

target: GRASP, Q7Z6J2; assay: holdup assay; design: key: below the threshold = too weak to quantify, mostly under pKd 3.1 to 4; conditions: plain residues with an end cap or a label only (N-terminal biotin on a linker: ado-ado)
Sequence (Q7Z6J2 96-193): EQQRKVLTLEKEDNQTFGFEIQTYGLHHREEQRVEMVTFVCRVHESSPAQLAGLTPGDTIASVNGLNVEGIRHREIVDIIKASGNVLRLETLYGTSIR

Row | Binder | pKd
93 | B1 | 3.65
94 | B2 | 3.56
95 | B3 | 3.8
96 | B4 | below the threshold

target: T11, DFNB31_2, Q9P202; assay: holdup assay; design: key: below the threshold = too weak to quantify, mostly under pKd 3.1 to 4; conditions: plain residues with an end cap or a label only (N-terminal biotin on a linker: ado-ado)

Row | Binder | pKd
97 | B1 | below the threshold
98 | B2 | below the threshold
99 | B3 | 3.9
100 | B4 | below the threshold

target: MAST1, Q9Y2H9; assay: holdup assay; design: key: below the threshold = too weak to quantify, mostly under pKd 3.1 to 4; conditions: plain residues with an end cap or a label only (N-terminal biotin on a linker: ado-ado)
Sequence (Q9Y2H9 962-1065): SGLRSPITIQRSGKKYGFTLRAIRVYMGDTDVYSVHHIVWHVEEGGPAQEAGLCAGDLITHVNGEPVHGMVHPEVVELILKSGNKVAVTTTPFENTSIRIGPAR

Row | Binder | pKd
101 | B1 | below the threshold
102 | B2 | below the threshold
103 | B3 | 4.13
104 | B4 | 3.83
